Test results from IntAct's records for PubMed 22474355.

B1: RNA-silencing factor ers1 (Schizosaccharomyces pombe (strain ATCC 38366 / 972)), O94717 (parent)
chain: MGKVSANNQSGFFKFYIDTALLLNAEFISSFTNCINSEYNGKVKISYSSSSQQFKVIVYEEHKREAFSLFEEIVQKLKRESTVYKKPRLDIHPFGQLHYDFTTLLNFQRYLDLGYGIEDVKIKENEDIVKSKVGKKPTSSDFYIPCLIKPKIITPFEWEGNFKQVIYSPTVYNGSFKRLFYLPDNNDLLKEFAHATNTKYKASLKDNKIVVLANNDQDINAMLEKMKHIENLVSQKVYEYPEETLVYAGKIAPCQLKFLKLKFENEILYTAMHTTSIFKSVFNILGSFYTMRLLRNKHDGDSYELVPVFAKNPSKTPPCNDNFKIFSDDIKLIGCKIFAGVSLNFSSPKPAHRFYELNKTSSNLSIPVLQKPSNFHSSSTELSDNSIHQGRRAVDPVVNQNNPSNFEEMIMNKLNKLPTIDKQILGTSSLTHFQDKTTAIEHSINKSNSKQPPRFKFQLPPRPTSNTLPLEPEEELVTRYSVSSDGNTVDEAITKQSQTFQLVNSNEFNEVNANDVHKSLRQNCAKLDFDDSKSKNLLSVECLELDKGSDCSTPKSGSLTPSIDMKFLRLQDEKMDDLGDNYYTILMSSNPVSSYGVGSLYLFQPKIVCSEKYINHEEIDNMNLKSLHRWLSRSLHVLQSFSGEIELNLEFGVILYPNISSDVSACSHGFMNIYKDLNLPRSYFADCITKSVSNIDSLLNTPVKILFGRTEYTYPLIEHEVLDSKNYFVFKGSLLFTDDKRNKTEDSTVFFSMICSSKLDQFAFYKDSKQSSTCTINFPLALWDSRLRIETKVPLNDAILTEFSKSIRFRNVNKDLLLVFGNMEDRVIIHSVTRINENSVPFNKNLLPHSLEFILKCSKVKSYDISPSSINSKEAFVCLDRSKESKPIESCFSLSIQSVYMQSQFKYNNSIRAGETAPWKLANKQFIGGAITENVSDLYTAAIIMVNQLGGIHPTI
partner: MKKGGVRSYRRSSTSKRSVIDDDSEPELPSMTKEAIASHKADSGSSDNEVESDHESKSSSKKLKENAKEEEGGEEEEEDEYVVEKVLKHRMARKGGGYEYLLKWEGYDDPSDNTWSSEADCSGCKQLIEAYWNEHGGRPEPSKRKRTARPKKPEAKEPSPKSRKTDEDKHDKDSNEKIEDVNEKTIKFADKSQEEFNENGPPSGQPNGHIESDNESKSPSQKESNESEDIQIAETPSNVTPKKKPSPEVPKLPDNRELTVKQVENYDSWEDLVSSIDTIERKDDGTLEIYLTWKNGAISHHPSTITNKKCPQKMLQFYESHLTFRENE
B2: RNA-silencing factor ers1 (Schizosaccharomyces pombe (strain ATCC 38366 / 972)), O94717 (parent)
chain: B1 chain
partner: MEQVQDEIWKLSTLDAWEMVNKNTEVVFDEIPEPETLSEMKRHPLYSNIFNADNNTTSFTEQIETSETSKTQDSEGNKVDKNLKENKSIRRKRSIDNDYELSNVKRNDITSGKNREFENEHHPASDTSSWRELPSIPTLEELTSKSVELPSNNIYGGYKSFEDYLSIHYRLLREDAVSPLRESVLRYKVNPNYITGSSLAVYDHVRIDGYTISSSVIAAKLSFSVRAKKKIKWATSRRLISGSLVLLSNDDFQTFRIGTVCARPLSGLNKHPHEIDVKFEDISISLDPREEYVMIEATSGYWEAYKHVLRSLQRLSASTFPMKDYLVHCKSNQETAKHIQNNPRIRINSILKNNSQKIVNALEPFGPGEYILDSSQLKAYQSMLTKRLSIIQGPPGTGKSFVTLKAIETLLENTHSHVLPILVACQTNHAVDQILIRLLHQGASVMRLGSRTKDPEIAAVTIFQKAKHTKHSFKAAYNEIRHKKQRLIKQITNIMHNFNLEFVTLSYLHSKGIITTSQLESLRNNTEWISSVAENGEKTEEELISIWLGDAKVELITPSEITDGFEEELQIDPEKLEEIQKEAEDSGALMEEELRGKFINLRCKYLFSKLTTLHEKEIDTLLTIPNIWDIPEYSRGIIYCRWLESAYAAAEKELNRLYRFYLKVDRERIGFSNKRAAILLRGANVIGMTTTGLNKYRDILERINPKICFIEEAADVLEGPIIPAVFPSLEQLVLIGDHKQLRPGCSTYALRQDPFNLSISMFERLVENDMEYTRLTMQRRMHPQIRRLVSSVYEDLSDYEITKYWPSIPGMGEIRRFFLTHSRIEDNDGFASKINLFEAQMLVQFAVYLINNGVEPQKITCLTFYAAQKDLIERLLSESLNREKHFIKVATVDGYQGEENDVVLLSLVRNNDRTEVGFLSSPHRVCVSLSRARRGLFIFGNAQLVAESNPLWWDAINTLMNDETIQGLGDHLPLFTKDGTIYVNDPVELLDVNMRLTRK

Variants of: B1
Settings: with swi6_schpo swi6, P40381

| effect of a mutation on the interaction | Variant |
| --- | --- |
| decreasing interaction strength | S234P |

Variants of: B2
Settings: with hrr1_schpo hrr1, O74465

| effect of a mutation on the interaction | Variant |
| --- | --- |
| decreasing interaction strength | S234P |
